Source: paper PMC9263169, “Aptamer-antibody hybrid ELONA that uses hybridization chain reaction to detect a urinary biomarker EN2 for bladder and prostate cancer”

T1: EN2 (Engrailed-2), recombinant (human, UniProt P19622 1-333)
T1 sequence: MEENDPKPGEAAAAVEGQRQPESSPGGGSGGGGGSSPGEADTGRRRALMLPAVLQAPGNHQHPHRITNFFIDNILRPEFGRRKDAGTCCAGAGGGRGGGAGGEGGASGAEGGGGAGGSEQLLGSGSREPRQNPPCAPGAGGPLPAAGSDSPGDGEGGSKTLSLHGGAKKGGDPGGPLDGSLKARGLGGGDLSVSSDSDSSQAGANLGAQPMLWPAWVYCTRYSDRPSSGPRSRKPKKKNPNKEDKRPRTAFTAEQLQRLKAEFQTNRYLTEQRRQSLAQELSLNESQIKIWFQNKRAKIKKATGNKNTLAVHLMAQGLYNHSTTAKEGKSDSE


Key:
[1] = target: T1, EN2 (Engrailed-2), recombinant; assay: magnetic-bead fluorescence assay (His-EN2 on NTA beads); 5 mM Mg2+; 20 mM Tris-HCl, 50 mM NaCl, 5 mM KCl, 5 mM MgCl2, pH 8.0, room temperature, 1 h; conditions: protein: recombinant; tags: N-terminal His (pET28a); label: 5'-FAM
[2] = target: T1, EN2 (Engrailed-2), recombinant; assay: plate fluorescence binding (EN2 immobilized); signal saturates at 250 nM EN2; 20 mM Tris-HCl, 50 mM NaCl, 5 mM KCl, 5 mM MgCl2, pH 8.0, room temperature, 1 h; conditions: protein: recombinant; tags: N-terminal His (pET28a); label: 5'-FAM; hairpin

Binder | Kd [1] [nM] | binding result [2]
AGCGGATCCGAGGTGAGGAGCGCCGGTGAGACTCCTTCATTCTATCTGCT (structured_DNA) [EBA (trimmed H90)] | 8.26 | 
CGCATAATTACCTCCAGAAGGAGAGGTAATTATGCG (structured_DNA) [EN2 motif hairpin DNA] |  | binds
